For data set [1], the target named is T1, His-MIF (His-tag/T7 gene 10 leader/Xpress-MIF fusion) (UniProt P14174 P14174:1-115).
T1 chain: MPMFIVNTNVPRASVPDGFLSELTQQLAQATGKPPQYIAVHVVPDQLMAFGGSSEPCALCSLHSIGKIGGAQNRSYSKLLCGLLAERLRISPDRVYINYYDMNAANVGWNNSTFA
The data set is described as follows: SPR; 600 nM His-MIF; data not shown. As to conditions: MIF 115 aa; ATGen.

For data set [2], the target named is T1, His-MIF (His-tag/T7 gene 10 …). Kind of data set: SPR; 600 nM His-MIF. To be noted: MIF 115 aa; ATGen. How it is done: A molecular interaction between each of the RNA aptamers and each of fusion proteins, i.e., a binding ability of each of the RNA aptamers to each of the fusion proteins was analyzed using surface plasmon resonance. The analysis of the binding ability was performed using BiacoreX (GE Healthcare UK Ltd.) according to the instruction thereof. Specifically, first, polyadenine having 20 bases was added to the 3′-end of the RNA aptamer. Thus, polyadenine-added RNA aptamer was prepared. This was then heated at 95° C. for 5 minutes and rapidly cooled on ice. Biotinylated polythymine having 20 bases obtained by biotinylating the 5′-end of polythymine had been bound to a streptavidin chip (Sensor chip SA, GE Healthcare UK Ltd.). The polyadenine-added RNA aptamer was introduced into a flow cell on the streptavidin chip using a running buffer. At this stage, the polyadenine-added RNA aptamer was immobilized on the chip via the biotinylated polythymine by complementary binding between poly A of the polyadenine-added RNA aptamer and the biotinylated polythymine. The polyadenine-added RNA aptamer was caused to bind to the biotinylated polythymine until a resonance unit (RU) (resonance unit; 1 RU=1 pg/mm²) reaches 700 RU. Subsequently, HBS (Hepes Buffered Saline) containing the fusion protein with a predetermined concentration was introduced into the chip using a running buffer, and a signal (RU) was measured. The composition of the running buffer includes 10 mmol/L HEPES (4-(2-hydroxyethyl)-1-piperazine ethanesulfonic acid), 150 mmol/L sodium chloride, 0.1 mmol/L magnesium acetate, and 0.01% Tween (registered trademark) 20 (pH 7.2). As a control, an introduction of the fusion protein and a measurement of a signal were performed in the same manner as described above using a chip to which biotinylated polythymine had been bound, on which no polyadenine-added RNA aptamer had been immobilized.
A binding ability of each of the RNA pools in the respective rounds to His-MIF was analyzed by surface plasmon resonance in the same manner as in “1. (4) Molecular interaction analysis” of Example 1. […] N40 (control RNA) also was analyzed in the same manner as mentioned above.

B1: #7009 (ssRNA)
RNA: GGGACGCUCACGUACGCUCAUGAUUGAAUGGGCGAAUCGACCUUACCGGUUUUCUGCAACUCAGUGCCUGGACGUGCAGU
modifications: 3' A20 tail for capture
As for B1, the binding result in data set [1] was “binds”.

B2: #7008 (ssRNA)
RNA: GGGACGCUCACGUACGCUCAUUGUCUUGGUGUAUUGGUUACUGUCCAAUGGGCGGUGUAUUCAGUGCCUGGACGUGCAGU
modifications: 3' A20 tail for capture
Take B2: in data set [1], the binding result is “binds”.

B3: #708 (ssRNA)
RNA: GGGACGCUCACGUACGCUCACGGUUAUUGGCGGAGGAUCUGUCAUGGCAUGCCUCGACUGUCAGUGCCUGGACGUGCAGU
modifications: 3' A20 tail for capture
Consider B3, for which, in data set [2], the binding signal turned out to be 1.16 His-MIF/RNA bonds.

B4: #746 (ssRNA)
RNA: GGGACGCUCACGUACGCUCAGGUGAAUUGGCACUUCUUUAUCUACGGAUCGAGUCGGAUGUCAGUGCCUGGACGUGCAGU
modifications: 3' A20 tail for capture
On to B4, for which the binding signal in data set [2] was found to be 0.5 His-MIF/RNA bonds.

B5: #7015 (ssRNA)
RNA: GGGACGCUCACGUACGCUCAUGUCUCGGUUUAUUGGCGGUCGGACUUUUGCCCUGCGAUGUCAGUGCCUGGACGUGCAGU
modifications: 3' A20 tail for capture
As for B5, the binding result in data set [1] is reported as “binds”.

B6: #716 (ssRNA)
RNA: GGGACGCUCACGUACGCUCACCUGUUUUGUCUAGGUUUAUUGGCGCUUAUUCCUGGAAUGUCAGUGCCUGGACGUGCAGU
modifications: 3' A20 tail for capture
As for B6, in data set [2], the binding signal turned out to be 0.99 His-MIF/RNA bonds.

B7: #748 (ssRNA)
RNA: GGGACGCUCACGUACGCUCAGCGCUUCUCGUUUGCUUUCCGGGUUCAUUGGUCCAUGUUUUCAGUGCCUGGACGUGCAGU
modifications: 3' A20 tail for capture
Regarding B7, the binding result in data set [1] is “binds”.

B8: #707 (ssRNA)
RNA: GGGACGCUCACGUACGCUCACGGUGGAUUGGCGACGAUGACCUUGAUAGUCCUCGUAAUGUCAGUGCCUGGACGUGCAGU
modifications: 3' A20 tail for capture
For B8, the binding result in data set [1] was “binds”.

B9: #715 (ssRNA)
RNA: GGGACGCUCACGUACGCUCAUAGAGUGUAUUUGUACCAGGUAUACUGGCGCGAACGAAUGUCAGUGCCUGGACGUGCAGU
modifications: 3' A20 tail for capture
Turning to B9, the binding result in data set [1] is “binds”.

B10: #7007 (ssRNA)
RNA: GGGACGCUCACGUACGCUCAGAGAUCGUUCUGGUUAUUGGCGCCUUCUGAUAAAGGAAUGUCAGUGCCUGGACGUGCAGU
modifications: 3' A20 tail for capture
Turning to B10, the binding result in data set [1] was “binds”.

B11: #736 (ssRNA)
RNA: GGGACGCUCACGUACGCUCACCUCAAGUCGGGUCUAUUGUCUCCGGCGAAGCAUGGACUGUCAGUGCCUGGACGUGCAGU
modifications: 3' A20 tail for capture
B11: the binding result in data set [1] was “binds”.

B12: #723 (ssRNA)
RNA: GGGACGCUCACGUACGCUCAGGUUAUUGGCGCCCUCGAACCAAAAUGGAUGCCGGGAAUGUCAGUGCCUGGACGUGCAGU
modifications: 3' A20 tail for capture
Take B12: in data set [1], the binding result was “binds”.

B13: #714 (ssRNA)
RNA: GGGACGCUCACGUACGCUCAGGUUUAUUGGUGCCGUGUAGUGGAAUAUCAGUGCCUGGACGUGCAGU
modifications: 3' A20 tail for capture
B13: the binding signal in data set [2] amounted to 1.01 His-MIF/RNA bonds.

B14: #719 (ssRNA)
RNA: GGGACGCUCACGUACGCUCAGCUCUCUUACUUCCUGGGUGACUGGCUCUUUCGGGGUAUGUCAGUGCCUGGACGUGCAGU
modifications: 3' A20 tail for capture
Turning to B14, in data set [1], the binding result was “binds”.

B15: #718 (ssRNA)
RNA: GGGACGCUCACGUACGCUCACUUCUUUCCCACUCACGUCUCGGUUUUAUUGGUCCAGUUUUCAGUGCCUGGACGUGCAGU
modifications: 3' A20 tail for capture
Take B15: in data set [2], the binding signal came to 0.75 His-MIF/RNA bonds.

B16: #743 (ssRNA)
RNA: GGGACGCUCACGUACGCUCAACACUUGCUUUUUCUUGUCCGGGUUUAUUGGUCGUUGUAUUCAGUGCCUGGACGUGCAGU
modifications: 3' A20 tail for capture
With B16, the binding result in data set [1] is on record as “binds”.

B17: #7030 (ssRNA)
RNA: GGGACGCUCACGUACGCUCAAUGAGCUCACCUGGGUAAUUGGCGCCAAUUCAAGGGUCUGUCAGUGCCUGGACGUGCAGU
modifications: 3' A20 tail for capture
As to B17, the binding result in data set [1] is listed as “binds”.

B18: #701 (ssRNA)
RNA: GGGACGCUCACGUACGCUCACCGGGUUAUUGGCGCAAUAUUGGUAUCCUGUAUUGGUCUGUCAGUGCCUGGACGUGCAGU
modifications: 3' A20 tail for capture
Turning to B18, in data set [2], the binding signal worked out at 1.32 His-MIF/RNA bonds.

B19: #725 (ssRNA)
RNA: GGGACGCUCACGUACGCUCACAUGUCCGGGUGGAUUGGAUCGAUUACUUGUUUUCGUUUAUCAGUGCCUGGACGUGCAGU
modifications: 3' A20 tail for capture
For B19, the binding result in data set [1] is “binds”.

B20: #7029 (ssRNA)
RNA: GGGACGCUCACGUACGCUCACGAAAUCCAGGUUUGAUUGGCGUGGCACCCUUGCCAAGUGUCAGUGCCUGGACGUGCAGU
modifications: 3' A20 tail for capture
Turning to B20, in data set [1], the binding result is “binds”.

B21: #7049 (ssRNA)
RNA: GGGACGCUCACGUACGCUCACGCUCAGGUGAAUUGGUUACGUUUUCUCUGACAAUGUGGAUCAGUGCCUGGACGUGCAGU
modifications: 3' A20 tail for capture
In the case of B21, in data set [1], the binding result is listed as “binds”.

B22: #7062 (ssRNA)
RNA: GGGACGCUCACGUACGCUCAUCUCGCCGCAUUUCCAGGUUUUUUGGCGCUUAUGAAUGAUCAGUGCCUGGACGUGCAGU
modifications: 3' A20 tail for capture
B22: the binding result in data set [1] is reported as “binds”.

B23: #730 (ssRNA)
RNA: GGGACGCUCACGUACGCUCAUUCGACCGGGUUAUUGGCUGCUCUCCUCUGGUUUGUGAUGUCAGUGCCUGGACGUGCAGU
modifications: 3' A20 tail for capture
B23: the binding result in data set [1] is “binds”.

B24: #7004 (ssRNA)
RNA: GGGACGCUCACGUACGCUCAGGCGUUCUUCGCUGUAGUUCCGGUUUAUUGGUCUUUGUUUUCAGUGCCUGGACGUGCAGU
modifications: 3' A20 tail for capture
As to B24, the binding result in data set [1] is on record as “binds”.

B25: #727 (ssRNA)
RNA: GGGACGCUCACGUACGCUCACUCAGGUGAUUGGCGCUAUUUAUCGAUCGAUAAUUGAAUGUCAGUGCCUGGACGUGCAGU
modifications: 3' A20 tail for capture
With B25, the binding signal in data set [2] is 1.05 His-MIF/RNA bonds.

B26: #7054 (ssRNA)
RNA: GGGACGCUCACGUACGCUCAAAGUGUCUGCAAGUCUACCGGUUUAUUGGCCACUCCGUUUUCAGUGCCUGGACGUGCAGU
modifications: 3' A20 tail for capture
On to B26, for which the binding result in data set [1] is on record as “binds”.

B27: #7052 (ssRNA)
RNA: GGGACGCUCACGUACGCUCAAUUCUGUUCUGUCUCUCCGGGUUUACUGGCGCUAUGAAUGUCAGUGCCUGGACGUGCAGU
modifications: 3' A20 tail for capture
As to B27, in data set [1], the binding result is on record as “binds”.

B28: #7034 (ssRNA)
RNA: GGGACGCUCACGUACGCUCAAAAUGCUGUUGCAGGUUAUUUGGCUCUCGGUCUGAGAAUGUCAGUGCCUGGACGUGCAGU
modifications: 3' A20 tail for capture
As for B28, the binding result in data set [1] was “binds”.

B29: #745 (ssRNA)
RNA: GGGACGCUCACGUACGCUCAGAGCCACGGGUUUACUGGCGCUAAACAAAUGUUUAGGAUGUCAGUGCCUGGACGUGCAGU
modifications: 3' A20 tail for capture
With B29, in data set [1], the binding result is listed as “binds”.
